From PMC9426509
pKd: −log10 of the molar value.

Target: Echovirus 18 (E18) mature (full) virus particle, strain HeB15-254 (echovirus 18 (strain HeB15-254))
Experiment: SPR; Biacore 3000, 25 C; biotinylated full E18 particles in PBS with Tween immobilised on streptavidin (SA) chips; FcRn or CD55 flowed at 31.25 nM to 2,000 nM; pH 7.4; 1:1 binding model

Work on “soluble ectodomain of human neonatal Fc receptor (FcRn): FCGRT (A16-L282) with B2M (from UniProt P61769 21-119) (complex)” yielded a pKd of 6.46.
